Experimental data published in article PMC10940162.

Target: porcine brain tubulin (microtubules) (porcine)
Test: microtubule-capping assay with TIRF microscopy; Taxol-, docetaxel- or GMPCPP-stabilized microtubules held on the coverslip through biotin–neutravidin; γ-TuC (GCP3–GFP) in solution; 5 µM tubulin, 50 mM KCl, MRB80, 30 °C; capped if γ-TuC stayed bound for at least 2 min

capping efficiency (percent of minus ends capped by γ-TuC): 30 to 60%
Substance: γ-tubulin-containing complexes (complete and incomplete γ-TuRC) purified using GCP3–GFP–SII (from UniProt Q96CW5 1-907; Q9BSJ2 1-902; Q9UGJ1 1-667; Q96RT8 1-1024; Q96RT7 1-1819; P23258 1-451)
